Results published in US20040202659A1 (ASAT AG APPLIED SCIENCE AND TECHNOLOGY, published 2004).

B1: AI-B18 (Fab, V domains shown)
VH: QVKLLESGAEVKKPGSSVMVSCKASGGTFSSHTISWVRQAPGQGLEWMGGITPIFGTVNYAQKFQGRVTITADEPTSTAYMELRSLTSDDSGIYYCAREDGTTVPSQPLEFWGQGTRVTVSS
notes: phab; also called A1-B18
B2: AI-B40 (Fab, V domains shown)
VH: QVKLLESGAEVKKPGSSVMVSCKASGGTFSSHTISWVRQAPGQGLEWMGGITPIFGTVNYAQKFQGRVTITADEPTSTAYMELRSLTSDDSGIYYCAREDGTTVPSQPLEFWGQGTRVTVSS
notes: phab; also called A1-B40
B3: AI-B34 (Fab, V domains shown)
VH: QVKLLESGAEVKKPGSSVMVSCKASGGTFSSHTISWVRQAPGQGLEWMGGITPIFGTVNYAQKFQGRVTITADEPTSTAYMELRSLTSDDSGIYYCAREDGTTVPSQPLEFWGQGTRVTVSS
notes: phab; also called A1-B34
B4: AI-B14 (Fab, V domains shown)
VH: QVKLLESGGGVVQPGRSLRLSCAASGFTFSDYGMHWVRQAPGKGLEWVAAISYDGSNKYYADSVKGRFSISRDNSNNTLYLQMSTLRAEDTAVYFCARDSETAIAAAGRFDIWGQGTMVTVSS
notes: phab; also called A1-B14; AI-14
B5: AI-B17 (Fab, V domains shown)
VH: QVKLLESGGGVVQPGRSLRLSCAASGFTFSDYGMHWVRQAPGKGLEWVAAISYDGSNKYYADSVKGRFSISRDNSNNTLYLQMSTLRAEDTAVYFCARDSETAIAAAGRFDIWGQGTMVTVSS
notes: phab; also called A1-B17
B6: AI-B38 (Fab, V domains shown)
VH: QVKLLESGAEVKKPGASVKVSCKVSGYTLTELSMHWVRQAPGKGLEWMGGFDPEDGETIYAQKFQGRVTMTEDTSTDTAYMELSSLRSEDTAVYYCETGLRSYNYGRNLDYWGQGTLVTVSS
notes: phab; also called A1-B38
B7: AI-B24 (Fab, V domains shown)
VH: QVKLLESGGGLVQPGGSLRLSCSASGFTFNKYAIHWVRQAPGKGLEYVSAISSNGGNTYYADSVKGRFTISRDNSKNTVYLQMSSLRAEDTAVYYCVRGSGSYLGYYFDYWGQGTLVTVSS
VL: VVTQPPSVSVAPRQTATITCGGYKIGSKSVHWYQQKPGQAPVLVVYEDSYRPSEIPERFSGSNSGNMATLTITGVEAGDEADYYCQVWDNTNDQTIFGGGTKLTVLR
notes: phab; also called A1-B24

Experiments:
[1] = target: T1, PDG-A; test: specificity assay
T1 construct: lambda light chain; also called Group A phab clones; Group A autoantibody phab clones

[2] = target: T2, PDG-B; test: flow cytometry, biotinylated PDG-B on platelets with AI-B phab
T2 construct: human anti-GPIIb/IIIa Fab, as phab or as biotinylated recombinant Fab; lambda light chain; also called Group B phab clones; Group B antibody phab clones
Procedure: This was determined by means of flow-cytometric analysis. […] 10,000 events were counted in a FACScan appliance and the mean value of the fluorescence (±SD) was recorded.

[3] = target: T2, PDG-B; test: specificity assay

T1 sequence (VH, as listed by the source, chain 1 of 2): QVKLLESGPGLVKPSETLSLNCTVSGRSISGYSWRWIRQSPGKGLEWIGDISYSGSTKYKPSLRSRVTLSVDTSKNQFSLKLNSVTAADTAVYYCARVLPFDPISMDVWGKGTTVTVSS
T1 sequence (VL, as listed by the source, chain 2 of 2): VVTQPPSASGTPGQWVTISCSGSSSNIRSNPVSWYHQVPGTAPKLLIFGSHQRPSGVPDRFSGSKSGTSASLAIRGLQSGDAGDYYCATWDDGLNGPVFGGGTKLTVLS

| Binder | binding result [1] | inhibition of the binding of PDG-B to platelets [2] | binding result [3] |
| --- | --- | --- | --- |
| B1 | no binding | > 60% |  |
| B2 | no binding |  |  |
| B3 | no binding |  |  |
| B4 | no binding |  | binds |
| B5 | no binding |  | binds |
| B6 | no binding | > 60% |  |
| B7 | no binding | > 60% |  |
